From patent publication US20150017154A1 (NEXVET AUSTRALIA, published 2015)
Changes are numbered by the printed parent chain.

B1: caninised anti-NGF antibody comprising the caN-HCA heavy chain and caN-kLC light chain (antibody)
heavy: EVQLVESGGDLVNPGGTLTLSCVVSGFSLTNNNVNWVRQALGRGLEWVGGVWAGGATDYNSALKSRLTITRDTSKSTVFLKMHSLQSEDTATYYCARDGGYSSSTLYAMDAWGQGTLVTVSSASTTAPSVFPLAPSCGSTSGSTVALACLVSGYFPEPVTVSWNSGSLTSGVHTFPSVLQSSGLHSLSSMVTVPSSRWPSETFTCNVVHPASNTKVDKPVFNECRCTDTPPCPVPEPLGGPSVLIFPPKPKDILRITRTPEVTCVVLDLGREDPEVQISWFVDGKEVHTAKTQSREQQFNGTYRVVSVLPIEHQDWLTGKEFKCRVNHIDLPSPIERTISKARGRAHKPSVYVLPPSPKELSSSDTVSITCLIKDFYPPDIDVEWQSNGQQEPERKHRMTPPQLDEDGSYFLYSKLSVDKSRWQQGDPFTCAVMHETLQNHYTDLSLSHSPGK
light: DIQMTQSPASLSLSQEEKVTITCRASEDIYNALAWYQQKPGQAPKLLIYNTDTLHTGVPSRFSGSGSGTEYSLTINSLESEDVAVYFCQHYFHYPRTFGAGTKVELKRNDAQPAVYLFQPSPDQLHTGSASVVCLLNSFYPKDINVKWKVDGVIQDTGIQESVTEQDKDSTYSLSSTLTMSSTEYLSHELYSCEITHKSLPSTLIKSFQRSECQRVD
notes: Tested as CHO cell transfectant supernatant; also called A-HCA; caN-HCA+caN-kLC1
B2: caninised anti-NGF antibody comprising the caN-HCB heavy chain and the caN-kLC light chain (antibody)
heavy: EVQLVESGGDLVNPGGTLTLSCVVSGFSLTNNNVNWVRQALGRGLEWVGGVWAGGATDYNSALKSRLTITRDTSKSTVFLKMHSLQSEDTATYYCARDGGYSSSTLYAMDAWGQGTLVTVSSASTTAPSVFPLAPSCGSTSGSTVALACLVSGYFPEPVTVSWNSGSLTSGVHTFPSVLQSSGLYSLSSMVTVPSSRWPSETFTCNVAHPASKTKVDKPVPKRENGRVPRPPDCPKCPAPEMLGGPSVFIFPPKPKDTLLIARTPEVTCVVVDLDPEDPEVQISWFVDGKQMQTAKTQPREEQFNGTYRVVSVLPIGHQDWLKGKQFTCKVNNKALPSPIERTISKARGQAHQPSVYVLPPSREELSKNTVSLTCLIKDFYPPDIDVEWQSNGQQEPESKYRTTPPQLDEDGSYFLYSKLSVDKSRWQRGDTFICAVMHEALHNHYTQESLSHSPGK
light: B1 light
notes: Tested as CHO cell transfectant supernatant; also called caN-HCB+caN-kLC1
B3: caninised anti-NGF antibody comprising the caN-HCD heavy chain and caN-kLC light chain (antibody)
heavy: EVQLVESGGDLVNPGGTLTLSCVVSGFSLTNNNVNWVRQALGRGLEWVGGVWAGGATDYNSALKSRLTITRDTSKSTVFLKMHSLQSEDTATYYCARDGGYSSSTLYAMDAWGQGTLVTVSSASTTAPSVFPLAPSCGSTSGSTVALACLVSGYFPEPVTVSWNSGSLTSGVHTFPSVLQSSGLYSLSSTVTVPSSRWPSETFTCNVVHPASNTKVDKPVPKESTCKCISPCPVPESLGGPSVFIFPPKPKDILRITRTPEITCVVLDLGREDPEVQISWFVDGKEVHTAKTQPREQQFNSTYRVVSVLPIEHQDWLTGKEFKCRVNHIGLPSPIERTISKARGQAHQPSVYVLPPSPKELSSSDTVTLTCLIKDFYPPEIDVEWQSNGQPEPESKYHTTAPQLDEDGSYFLYSKLSVDKSRWQQGDTFTCAVMHEALQNHYTDLSLSHSPGK
light: B1 light
notes: also called D-HCD; caninised HCD type antibody
B4: caninised anti-NGF antibody comprising the caN-HCC heavy chain and a caN-kLC light chain (antibody)
heavy: EVQLVESGGDLVNPGGTLTLSCVVSGFSLTNNNVNWVRQALGRGLEWVGGVWAGGATDYNSALKSRLTITRDTSKSTVFLKMHSLQSEDTATYYCARDGGYSSSTLYAMDAWGQGTLVTVSSASTTAPSVFPLAPSCGSQSGSTVALACLVSGYIPEPVTVSWNSVSLTSGVHTFPSVLQSSGLYSLSSMVTVPSSRWPSETFTCNVAHPATNTKVDKPVAKECECKCNCNNCPCPGCGLLGGPSVFIFPPKPKDILVTARTPTVTCVVVDLDPENPEVQISWFVDSKQVQTANTQPREEQSNGTYRVVSVLPIGHQDWLSGKQFKCKVNNKALPSPIEEIISKTPGQAHQPNVYVLPPSRDEMSKNTVTLTCLVKDFFPPEIDVEWQSNGQQEPESKYRMTPPQLDEDGSYFLYSKLSVDKSRWQRGDTFICAVMHEALHNHYTQISLSHSPGK
light: B1 light
notes: Tested as CHO cell transfectant supernatant; also called C-HCC; caN-HCC+caN-kLC1
B5: aglycosylated variant anti-canine-NGF monoclonal antibody HCB* (SEQ ID NO:5 and SEQ ID NO:16) (antibody)
heavy: B2 heavy with N305A
light: B1 light
notes: Tested as CHO cell transfectant supernatant
B6: aglycosylated variant anti-canine-NGF monoclonal antibody HCC* (SEQ ID NO:5 and SEQ ID NO:17) (antibody)
heavy: B4 heavy with N303A
light: B1 light
notes: as for B5
B7: variant caninised anti-NGF antibody (caN2) with light chain SEQ ID NO:10 (VL2 and canine kappa constant domain) and heavy chain SEQ ID NO:11 (HCA variant-VH2 … (antibody)
heavy: B1 heavy with K81Q, Q86R
light: B1 light with Q3V, Y71F, N76S, S80P, F87Y
notes: also called anti-canine NGF monoclonal antibody (canine HCA type heavy chain)

What was measured:
[1] = biological target: T1, complement C1q (from human serum) (human, UniProt P02745 23-245; P02746 28-253; P02747 29-245); test: C1q ELISA: antibody captured on mouse NGF-coated plate, human serum, anti-C1q-HRP
T1 construct: Native C1q in human serum diluted 1/100
T1 sequence (P02745 23-245 limits assumed, chain 1 of 3): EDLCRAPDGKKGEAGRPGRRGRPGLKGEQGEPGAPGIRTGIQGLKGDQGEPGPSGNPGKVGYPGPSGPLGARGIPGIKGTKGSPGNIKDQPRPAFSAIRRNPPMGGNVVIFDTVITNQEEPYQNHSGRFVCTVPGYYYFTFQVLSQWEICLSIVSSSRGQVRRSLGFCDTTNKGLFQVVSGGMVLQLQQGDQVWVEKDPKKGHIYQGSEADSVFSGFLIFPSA
T1 sequence (P02746 28-253 limits assumed, chain 2 of 3): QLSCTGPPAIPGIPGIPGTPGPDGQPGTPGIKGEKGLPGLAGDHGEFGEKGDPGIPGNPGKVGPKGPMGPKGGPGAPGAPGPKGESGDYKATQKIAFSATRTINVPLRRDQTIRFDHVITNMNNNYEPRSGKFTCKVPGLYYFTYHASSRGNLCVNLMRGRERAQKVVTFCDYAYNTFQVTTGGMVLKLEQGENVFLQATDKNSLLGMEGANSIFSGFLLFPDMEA
T1 sequence (P02747 29-245 limits assumed, chain 3 of 3): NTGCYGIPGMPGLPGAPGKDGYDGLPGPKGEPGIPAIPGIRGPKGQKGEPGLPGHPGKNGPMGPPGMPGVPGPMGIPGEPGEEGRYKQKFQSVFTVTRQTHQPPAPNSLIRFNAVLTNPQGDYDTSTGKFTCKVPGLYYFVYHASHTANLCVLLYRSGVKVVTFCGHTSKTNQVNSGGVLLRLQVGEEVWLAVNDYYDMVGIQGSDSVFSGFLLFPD
Description: CHO cell transfectant supernatants from Example 2 were incubated with plates coated with […] NGF to capture the antibodies. The plates were washed and then incubated with human serum and bound complement C1q was measured by binding of anti-human C1q polyclonal antibody HRP and developed as above.
Plates were coated with 100 μl/well of 5 μg/ml mouse NGF and blocked with 5% BSA/PBS. Coated wells were incubated for 1 hour at room temperature with cell culture supernatants, containing recombinant caninised anti-NGF IgG, diluted in PBS/1% BSA (100 μl/well). The plates were washed and incubated for 1 hour at room temperature with 100 μl/well of human serum diluted 1/100 in veronal buffered saline containing 0.5 mM MgCl₂, 2 mM CaCl₂, 0.05% Tween-20, 0.1% gelatin and 0.5% BSA. After washing, plates were incubated with 100 μl of a 1/800 dilution of sheep anti-C1q-HRP (Serotec) in PBS/1% BSA. After washing, plates were developed by the addition of 100 μl TMB substrate (Thermo Scientific). Development was stopped by the addition of 100 μl of 2N H₂SO₄ and absorbance read at 450 nm.

[2] = biological target: T2, mouse NGF (mouse, UniProt P01139 122-241, limits assumed); test: ELISA, CHO supernatant on coated NGF, anti-canine IgG-HRP
T2 construct: Coated on ELISA plates; also called murine NGF
T2 sequence (P01139 122-241 limits assumed): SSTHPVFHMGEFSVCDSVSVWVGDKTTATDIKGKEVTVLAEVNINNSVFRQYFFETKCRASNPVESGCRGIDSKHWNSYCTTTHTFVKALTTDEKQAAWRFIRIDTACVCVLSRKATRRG
Description: Combinations of caninised heavy and light chain cDNAs were transfected into CHO cells, the supernatants harvested and reacted in ELISA format with either canine or murine NGF. Following incubation and wash steps, the bound canine antibody was detected by reactivity with a goat-anti canine IgG specific polyclonal antibody linked to horseradish peroxidase (HRP) and developed using TMB. The optical density of the resulting product was measured at 450 nm and compared with that from mock empty vector transfected supernatant (denoted as “Mock” in FIG. 1).

[3] = biological target: T2, mouse NGF; test: binding ELISA to mouse NGF, CHO supernatant dilutions
[4] = biological target: T2, mouse NGF; test: binding ELISA to mouse NGF, CHO supernatants undiluted and 1/100
Description: A comparison of the binding of N-glycosylated and aglycosylated variants of anti-canine-NGF monoclonal antibodies to NGF with HCB and HCC heavy chain isotypes was carried out. Expression vectors encoding the light and heavy chain pairs described by SEQ ID NO:5 and SEQ ID NO:7 (HCB), SEQ ID NO:5 and SEQ ID NO:16 (HCB*), SEQ ID NO:5 and SEQ ID NO:8 (HCC), or SEQ ID NO:5 and SEQ ID NO:17 (HCC*) were co-transfected into CHO cells and the supernatants compared by binding ELISA to mouse NGF.

[5] = biological target: T1, complement C1q (from human serum); test: C1q ELISA: antibody captured on NGF-coated plate, human serum, anti-C1q-HRP
[6] = biological target: NGF (species not stated, TF-1 cell proliferation assay); test: cell-based or functional assay

Binder	binding result [1]	binding result [4]	binding result [5]	other results
B1	no binding	–	–	binding result [2]: binds
B2	binds	–	–	binding result [3]: binds
B3	no binding	–	–	–
B4	binds	binds	–	–
B5	–	binds	no binding	–
B6	–	binds	binds	–
B7	–	–	no binding (tested: 4, 2 and 1 ug/ml)	IC50 in the TF-1 NGF neutralisation assay [6]: 0.013 nM; binding result [3]: binds
